Data from the supplement of paper PMC10126150.
± gives the standard deviation of the averaged measurements.

System: ATP
Assay: switch fluorescence ratio, 500 uM ATP over buffer (Cy3 cluster intensity, sum of 5 cycles each) (fold (ratio)); higher = stronger signal-on switching upon ATP binding; sequences stand for … in TCGTCGGCAGCGTCAGATGTGTATAAGAGACAGTTTTTTTTTTTTTTTTTTTTTTTTT…TC
Conditions: aptamer strand: ATP DNA aptamer (quencher-CACCTGGGGGAGTATTGCGGAGGAAGG + anchor), 100 nM annealed; ATP concentration: 500 uM
Summary of the method: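 For every switch-domain sequence, the fluorescence ratio is the mean of per-cluster values, each being summed target-cycle Cy3 intensity over summed buffer-cycle Cy3 intensity. Clusters outside 100-1000 RFU were excluded. On a modified Illumina MiSeq flow-cell, the Cy3-labelled switching-strand clusters were annealed to 100 nM quencher-labelled ATP aptamer, imaged in selection buffer and then after 15 min with 500 uM ATP at 22 °C. Five such cycles were run, with NaOH stripping and re-annealing between them.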
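Also: ATP exposure 15 min at 22 °C before imaging.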

Sequence | switch fluorescence ratio
TGTGGGTCAT | 0.9762 ± 0.0021
TGTGGGTGGG | 0.978 ± 0.025
TGTGGTATGC | 1.01 ± 0.057
TGTGGTGAGT | 0.963 ± 0.012
TGTGGTGGCG | 0.935 ± 0.018
TGTGGTTAGC | 1.01 ± 0.064
TGTGGTTCGA | 0.972 ± 0.011
TGTGGTTGGA | 1 ± 0.012
TGTGTATGAG | 0.986 ± 0.036
TGTGTATGCT | 0.9868 ± 0.0078
TGTGTCAATT | 0.9841 ± 0.0092
TGTGTCATGG | 0.986 ± 0.011
TGTGTCTATA | 0.97698 ± 0.00069
TGTGTGATAC | 1.549 ± 0.0055
TGTGTGCTGA | 1.02 ± 0.028
TGTGTGGGGT | 0.975 ± 0.021
TGTGTGGGTA | 0.95768 ± 0.00058
TGTGTGGTTT | 0.986 ± 0.036
TGTGTGTTAG | 0.985 ± 0.016
TGTGTTAGAG | 1.01 ± 0.019
TGTGTTTACC | 1.01 ± 0.043
TGTGTTTATT | 1.051 ± 0.008
TGTGTTTCGG | 0.9799 ± 0.0082

Sequence | switch fluorescence ratio
TGTGTTTTGG | 0.99 ± 0.027
TGTGTTTTT | 0.992 ± 0.038
TGTTAAGGGA | 1 ± 0.02
TGTTAATCAG | 0.98605 ± 0.00081
TGTTACACCT | 1.23 ± 0.025
TGTTAGGAGA | 1 ± 0.018
TGTTAGGGAG | 0.987 ± 0.03
TGTTAGGGAT | 1.01 ± 0.034
TGTTAGGGG | 1 ± 0.049
TGTTAGGGGT | 1 ± 0.075
TGTTAGTATT | 0.999 ± 0.019
TGTTAGTGGC | 1 ± 0.04
TGTTATAAAC | 1.02 ± 0.017
TGTTATAGG | 1.001 ± 0.0098
TGTTATAGGG | 1.03 ± 0.033
TGTTATATGC | 1 ± 0.019
TGTTATCGTT | 0.989 ± 0.018
TGTTATTAGT | 1.01 ± 0.022
TGTTCACTTT | 1.04 ± 0.036
TGTTCCGGAC | 1.023 ± 0.0058
TGTTCGGTCG | 1.005 ± 0.0014
TGTTCTAGGG | 1.01 ± 0.013
TGTTGAGGAA | 1.05 ± 0.053

Sequence | switch fluorescence ratio
TGTTGCAAGT | 0.976 ± 0.017
TGTTGCATCG | 1 ± 0.019
TGTTGCGGAT | 1.24 ± 0.29
TGTTGCGGGT | 1.01 ± 0.042
TGTTGGCGCG | 0.989 ± 0.053
TGTTGGGCCC | 1 ± 0.018
TGTTGGGCGG | 0.969 ± 0.026
TGTTGGGGAG | 0.972 ± 0.025
TGTTGGGGTG | 0.997 ± 0.045
TGTTGGGTGT | 1.01 ± 0.031
TGTTGGTAAA | 1.02 ± 0.024
TGTTGGTGTA | 0.994 ± 0.01
TGTTGGTTTG | 1.08 ± 0.14
TGTTGGTTTT | 1.02 ± 0.027
TGTTGTAGCG | 0.975 ± 0.037
TGTTGTAGGA | 0.997 ± 0.015
TGTTGTGAGG | 0.997 ± 0.025
TGTTGTTAAT | 0.999 ± 0.019
TGTTGTTATT | 1.018 ± 0.0091
TGTTGTTTTT | 0.991 ± 0.037
TGTTTAAATA | 1.033 ± 0.0035
TGTTTAACAG | 1.03 ± 0.05
TGTTTATTGA | 0.989 ± 0.013

Sequence | switch fluorescence ratio
TGTTTCCGGT | 1.44 ± 0.59
TGTTTCGTTT | 1 ± 0.055
TGTTTCTGG | 0.996 ± 0.036
TGTTTCTTGA | 1.01 ± 0.058
TGTTTGAATG | 0.9585 ± 0.0029
TGTTTGAGG | 0.9559 ± 0.009
TGTTTGATTT | 0.975 ± 0.019
TGTTTGGGGC | 0.989 ± 0.019
TGTTTGTATT | 0.955 ± 0.03
TGTTTGTGAA | 0.9815 ± 0.0032
TGTTTGTGGT | 0.987 ± 0.023
TGTTTTAAGC | 1.03 ± 0.022
TGTTTTAGAC | 0.997 ± 0.035
TGTTTTCCCC | 1.02 ± 0.028
TGTTTTCGTG | 0.985 ± 0.015
TGTTTTGAAT | 1.006 ± 0.0096
TGTTTTGTAG | 1 ± 0.015
TGTTTTTAAC | 0.983 ± 0.015
TGTTTTTACC | 1.03 ± 0.059
TGTTTTTATC | 0.992 ± 0.013
TGTTTTTCTT | 1.01 ± 0.033
TGTTTTTTGG | 0.991 ± 0.033
TGTTTTTTGT | 0.992 ± 0.034

Sequence | switch fluorescence ratio
TTAAAAAGAG | 0.999 ± 0.042
TTAAAAAGGG | 0.995 ± 0.029
TTAAAAGAGC | 1.02 ± 0.035
TTAAAAGTTA | 1.03 ± 0.044
TTAAAATATT | 0.993 ± 0.023
TTAAAATGAG | 0.9972 ± 0.006
TTAAACGC | 1.03 ± 0.012
TTAAACGGAG | 1.034 ± 0.0052
TTAAACGTGT | 1.04 ± 0.03
TTAAACGTTA | 1.32 ± 0.44
TTAAACTTAG | 0.992 ± 0.03
TTAAAGAAAT | 1.05 ± 0.091
TTAAAGACGT | 1.51 ± 0.7
TTAAAGAGCG | 0.989 ± 0.04
TTAAAGAGGC | 0.993 ± 0.032
TTAAAGATGG | 1 ± 0.045
TTAAAGGATT | 1.01 ± 0.052
TTAAAGGGAT | 1.1 ± 0.16
TTAAAGGGC | 0.973 ± 0.08
TTAAAGGGGT | 1.05 ± 0.1
TTAAAGGTTA | 0.989 ± 0.013
TTAAAGTAGT | 1.19 ± 0.32
TTAAAGTCGA | 1.0194 ± 0.00069

Sequence | switch fluorescence ratio
TTAAAGTTGC | 1.02 ± 0.038
TTAAAGTTGT | 1.03 ± 0.07
TTAAATAGGT | 0.9956 ± 0.0088
TTAAATATTT | 0.992 ± 0.022
TTAAATCATA | 0.99742 ± 0.00093
TTAAATGCCT | 1.07 ± 0.028
TTAAATGGGT | 1 ± 0.033
TTAAATTACC | 1.05 ± 0.032
TTAAATTGGG | 1.01 ± 0.018
TTAACAGGAA | 1.024 ± 0.0095
TTAACATACG | 1.38 ± 0.042
TTAACCGGGG | 1.13 ± 0.16
TTAACCGGTA | 1.02 ± 0.0039
TTAACGAACG | 1.15 ± 0.083
TTAACGCGTT | 1.0063 ± 0.00089
TTAACGGGTT | 1.02 ± 0.037
TTAACGGTCT | 1.04 ± 0.027
TTAACTAGAT | 1.02 ± 0.016
TTAACTAGGC | 0.989 ± 0.054
TTAACTAGGG | 0.974 ± 0.037
TTAACTGGGG | 1.11 ± 0.13
TTAACTTCGG | 0.9712 ± 0.0059
TTAACTTTCT | 1.058 ± 0.0094

Sequence | switch fluorescence ratio
TTAAGAACCT | 1.31 ± 0.13
TTAAGACCAC | 1.01 ± 0.012
TTAAGACGGG | 1.002 ± 0.0017
TTAAGACGGT | 1.03 ± 0.031
TTAAGAGAGG | 1.01 ± 0.013
TTAAGCAATT | 1.36 ± 0.047
TTAAGCACAT | 1.202 ± 0.011
TTAAGCCCTT | 1.04 ± 0.036
TTAAGCGAGC | 0.9657 ± 0.0024
TTAAGCTGTT | 1.01 ± 0.023
TTAAGCTTAT | 1.012 ± 0.006
TTAAGGAGCA | 1.05 ± 0.044
TTAAGGAGGA | 0.981 ± 0.03
TTAAGGATGT | 1 ± 0.014
TTAAGGCTAA | 1.03 ± 0.038
TTAAGGGTGG | 0.991 ± 0.021
TTAAGGGTTT | 1.01 ± 0.047
TTAAGGTCGG | 1 ± 0.012
TTAAGGTGAG | 1.02 ± 0.021
